Results: patent publication US7060266
Residue numbers refer to the chain shown, from its start.

B1: human brain carboxypeptidase B, 40 kDa protease (prepro-HBCPB) (protein)
chain: ASASYYEQYHSLNEIYSWIEFITERHPDMLTKIHIGSSFEKYPLYVLKVSGKEQTAKNAIWIDCGIHAREWISPAFCLWFIGHNRMWRKNRSFYANNHCIGTDLNSNFVSKHWCEEGASSSSCSETYCGLYPESEPEVKAVASFLRRNINQIKAYISMHSYSQHIVFPYSYTRSKSKDHEELSLVASEAVRAIDKTSKNTRYTHGHGSETLYLAPGGGDDWIYDLGIKYSFTSNPPVEKLLPLSLK
B2: human brain carboxypeptidase B, 30 kDa mature form (protein)
chain: B1 chain with S106R, V109A, D194E

Assays:
[1] = target: synthetic Aβ 1-40, P05067
[2] = target: synthetic Aβ 1-42, P05067
[3] = target: natural brain APP pretreated with chondroitinase ABC, P05067
[4] = target: natural brain APP prepared from human hippocampus, P05067

Row | Protein | digestion of synthetic Aβ 1-40 (Western blot) [1] | digestion of synthetic Aβ 1-42 (Western blot) [2] | proteolysis of chondroitinase ABC-pretreated brain APP [3] | proteolysis of natural brain APP (Western blot with anti Aβ 1/14 antibody) [4] | proteolytic activity of native-PAGE fractions for natural brain APP [4]
1 | B1 | low-molecular weight peptides formed in a dose-dependent manner | low-molecular weight peptides formed in a dose-dependent manner | it was shown that the reaction is almost completely inhibited | the 40 kDa protein degraded natural brain APP, generating a 5.5 kDa fragment as the major component of the 3 to 11 kDa Aβ-containing peptides | 
2 | B2 |  |  |  |  | fraction 19 with a molecular mass of about 40 kDa and fraction 11 with a molecular mass of about 30 kDa had similar proteolytic activities
